Source: the supplement of paper PMC10126150
± gives the standard deviation of the averaged measurements.

System: ATP
Assay: switch fluorescence ratio, 500 uM ATP over buffer (Cy3 cluster intensity, sum of 5 cycles each) (fold (ratio)); higher = stronger signal-on switching upon ATP binding; sequences stand for … in TCGTCGGCAGCGTCAGATGTGTATAAGAGACAGTTTTTTTTTTTTTTTTTTTTTTTTT…TC
Conditions: aptamer strand: ATP DNA aptamer (quencher-CACCTGGGGGAGTATTGCGGAGGAAGG + anchor), 100 nM annealed; ATP concentration: 500 uM
Method in brief: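 The fluorescence ratio divides summed target-cycle Cy3 intensity by summed buffer-cycle Cy3 intensity for each cluster and is averaged per switch-domain sequence. Cy3-labelled switching-strand clusters on a modified Illumina MiSeq flow-cell were annealed to 100 nM quencher-labelled ATP aptamer, then imaged in selection buffer and again after 15 min with 500 uM ATP at 22 °C. Five such cycles were run, with NaOH stripping and re-annealing between them, and clusters outside 100-1000 RFU were excluded.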
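Also: ATP exposure 15 min at 22 °C before imaging.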

Row | Sequence | switch fluorescence ratio
1 | GGGGGTGGTG | 0.988 ± 0.038
2 | AGTTCGCTAA | 1.012 ± 0.003
3 | TTTTGGTATT | 1.02 ± 0.044
4 | AAGGGCGGAT | 1.02 ± 0.021
5 | CCTTTTCGTG | 1.003 ± 0.0043
6 | CGTCAGGCAT | 1.17 ± 0.026
7 | TTTGCTATCA | 0.984 ± 0.013
8 | CGGGCACGTG | 0.946 ± 0.021
9 | TGTTAGGTAA | 1.22 ± 0.32
10 | TAGAGGGCCA | 1.01 ± 0.044
11 | CAGGGCGGGC | 0.84 ± 0.073
12 | GGTTTAGCGG | 0.9809 ± 0.0033
13 | GAGAGCAAGT | 1.14 ± 0.034
14 | TGGGGCAAAC | 1.87 ± 0.81
15 | TCATATTCTA | 0.9849 ± 0.0019
16 | CTGTGGCCCG | 0.98 ± 0.027
17 | GGGGTATTGT | 1.007 ± 0.0034
18 | GGCTTGGCCC | 1.015 ± 0.0063
19 | TGGGGCCCGA | 1.02 ± 0.037
20 | TTCATCGCTG | 1.04 ± 0.053
21 | TAAAACATTG | 1.03 ± 0.015
22 | GGACGGGGAC | 1.12 ± 0.015
23 | GCGTGCGGGG | 1.028 ± 0.0098

Row | Sequence | switch fluorescence ratio
24 | TTTGGTGACT | 1.018 ± 0.0063
25 | AAGGTAAGGG | 1.01 ± 0.041
26 | GTATTTACAT | 0.9862 ± 0.0048
27 | GTATGGGGCG | 1.01 ± 0.081
28 | CGTTGATCAG | 0.976 ± 0.024
29 | TGTGAAGTTG | 1.008 ± 0.0027
30 | AAAATATGG | 0.997 ± 0.031
31 | AAAGGTGCGG | 0.9931 ± 0.0063
32 | TAAGTCGAAA | 1 ± 0.019
33 | ACAGGAGCTT | 1.05 ± 0.04
34 | TACTGGGACG | 1.004 ± 0.0068
35 | ATCGGCGGTG | 0.986 ± 0.025
36 | ATACCATTTC | 1.03 ± 0.049
37 | CGTTTAATGG | 0.984 ± 0.0086
38 | TTTAGCCCAG | 1.013 ± 0.0024
39 | TGGATTGGGT | 1 ± 0.046
40 | GGGCACGTGG | 0.995 ± 0.035
41 | CGGTGAAAAT | 0.97 ± 0.027
42 | CGGGCGCTGA | 0.9837 ± 0.004
43 | TTTGCGGAGG | 1.27 ± 0.48
44 | GAGTGGTGTG | 0.979 ± 0.035
45 | GATGTTTACT | 1.0047 ± 0.00016
46 | GGCGCGTTAG | 1.02 ± 0.06

Row | Sequence | switch fluorescence ratio
47 | AGTCTCAAGT | 1.01 ± 0.045
48 | GCGGGTAGTG | 1.02 ± 0.028
49 | CGGGCTGGAA | 1.004 ± 0.0086
50 | AAAGGGCGGA | 0.9884 ± 0.009
51 | TGCCGATCAG | 0.993 ± 0.05
52 | CATGTATGT | 1.07 ± 0.03
53 | AAAATGTGAC | 1.039 ± 0.007
54 | CAAGGTCAGC | 0.9798 ± 0.0071
55 | CGTATAGGTC | 0.999 ± 0.033
56 | GAGATATATG | 0.983 ± 0.052
57 | GGTCATAATT | 0.986 ± 0.025
58 | CGTCATTGGG | 0.992 ± 0.045
59 | TGCACGTTGC | 1.02 ± 0.03
60 | CAGGTGGGGT | 1.16 ± 0.08
61 | TAGACTTTAT | 1.02 ± 0.029
62 | ATGAGGCAGT | 1.12 ± 0.039
63 | ATATAGGTGG | 0.999 ± 0.026
64 | AGATAGAAGG | 0.995 ± 0.012
65 | CGGATGGTGT | 0.97 ± 0.029
66 | GTTGTTGGGA | 0.9898 ± 0.003
67 | TGGACAAATT | 1.02 ± 0.022
68 | CACAGTGTCA | 1.01 ± 0.027
69 | AGAAAATTAG | 1.02 ± 0.039

Row | Sequence | switch fluorescence ratio
70 | TTGAATACCC | 1.052 ± 0.008
71 | TATGAGGGGG | 1.02 ± 0.04
72 | AGATTGGTTG | 0.985 ± 0.012
73 | TACTTTGCG | 1.01 ± 0.017
74 | TTTTTTTAAT | 1 ± 0.028
75 | GCGGTTAGGC | 0.968 ± 0.034
76 | CTGTGGTTTA | 1.03 ± 0.021
77 | TGAAAATGGT | 0.996 ± 0.015
78 | GCCGCGTGCG | 1.06 ± 0.024
79 | GGGATGCCCT | 1.01 ± 0.027
80 | GTTGTAAGGT | 0.986 ± 0.034
81 | ACTATTTGCA | 1.019 ± 0.0057
82 | GGAAGTGGCA | 1.01 ± 0.041
83 | TTGACCTTTG | 1.01 ± 0.011
84 | TATCTTTCGG | 0.997 ± 0.021
85 | AATTAGGGGA | 1 ± 0.014
86 | ATAAACTAGA | 1.01 ± 0.019
87 | ATTATGTCTT | 0.9878 ± 0.0094
88 | GAAATTCCGA | 1.85 ± 1.1
89 | CAAATAACAT | 1.01 ± 0.015
90 | AAGTAGTAGT | 1.007 ± 0.0043
91 | ACTTGAAGGT | 1.02 ± 0.017
92 | ACGAACAGTT | 1.15 ± 0.047

Row | Sequence | switch fluorescence ratio
93 | TGATTAATGA | 0.996 ± 0.034
94 | GGAGCGAGGG | 1.11 ± 0.061
95 | GCTAATGTTT | 0.998 ± 0.031
96 | CGGTTGTCGA | 1.01 ± 0.023
97 | GGGTATGTA | 1.01 ± 0.03
98 | CATTACAGCC | 1.09 ± 0.028
99 | TGTTACGGCA | 1.08 ± 0.041
100 | CGCTTCTCTT | 1.03 ± 0.011
101 | ACGGGGCCGT | 0.985 ± 0.031
102 | AGGGAATGAT | 1.01 ± 0.015
103 | AGTTTCTACG | 0.994 ± 0.015
104 | TGTATGTTTT | 0.962 ± 0.046
105 | AGGAAGTGCC | 1.032 ± 0.0062
106 | CGTACAAAAG | 0.998 ± 0.03
107 | TTGTTGCTTT | 1.02 ± 0.03
108 | TAATATGGGG | 1.01 ± 0.039
109 | GTGCGCAGAA | 0.988 ± 0.015
110 | TTAGCCACGC | 0.9902 ± 0.0029
111 | TGGTTTTTTC | 1.01 ± 0.033
112 | TATGGGGGTA | 1.01 ± 0.029
113 | ATTAAATTCG | 1 ± 0.017
114 | TTTTTTTATT | 1 ± 0.03
115 | TCTGATATAG | 1 ± 0.003

Row | Sequence | switch fluorescence ratio
116 | CAGTGAGGGA | 0.9804 ± 0.004
117 | TATTGCCGGG | 0.985 ± 0.036
118 | CCTAAAGGCT | 1.0151 ± 4.7e-05
119 | CCAGTAAATT | 0.993 ± 0.046
120 | GCTGTAGGTG | 1.039 ± 0.0033
121 | GAATATTCGC | 0.9958 ± 0.0032
122 | TCTGAATTCA | 0.972 ± 0.026
123 | AGGCCTCAGA | 0.973 ± 0.015
124 | CCTAAGTGTT | 1.06 ± 0.069
125 | GATGTTGTTT | 1.03 ± 0.056
126 | TTTACCTTGC | 2.03 ± 0.19
127 | ATGAAGGGGA | 1 ± 0.049
128 | TAGGAGTAAC | 0.9812 ± 0.0037
129 | AGGCACTTTT | 1.04 ± 0.015
130 | CGGGGTTAAG | 0.975 ± 0.025
131 | TAACGGCGTG | 1.03 ± 0.021
132 | TTACACAGGT | 1.12 ± 0.067
133 | CGGGGCTGGA | 0.984 ± 0.017
134 | TCGAGGAAGT | 0.999 ± 0.062
135 | TGCGTCAAAT | 0.999 ± 0.024
136 | TAGTCATTTG | 0.962 ± 0.0097
137 | GACCCGGGTG | 2.98 ± 0.18
138 | GATATTTTAA | 0.992 ± 0.037

Row | Sequence | switch fluorescence ratio
139 | TCTAATTTCC | 1.05 ± 0.045
140 | TTGTACTACC | 1.1603 ± 0.00036
141 | CGTCGTACGC | 0.981 ± 0.13
142 | TTTATATTTG | 1 ± 0.027
143 | CTTGACTTTT | 1.015 ± 0.0014
144 | TTCATGGAGT | 0.983 ± 0.028
145 | CGGAGGTAGG | 1.01 ± 0.043
146 | TCAAGTTTTC | 0.987 ± 0.034
147 | TAATGTGTAC | 1.024 ± 0.0044
148 | GCTGAGGTGA | 1.02 ± 0.042
149 | TAGGAGGTAT | 1.01 ± 0.048
150 | TTATATTAGC | 1 ± 0.054
151 | GTTTAACGGT | 1 ± 0.012
152 | TTGTTAAATT | 0.98 ± 0.018
153 | GACTTGAGTT | 0.9971 ± 0.0091
154 | CGATGAGGTA | 0.968 ± 0.06
155 | TATTTCGGGA | 0.994 ± 0.026
156 | ATCCAGGTAG | 1.75 ± 0.076
157 | GGTATAGGGA | 1.01 ± 0.026
